In the test the target is T1, calmodulin (Homo sapiens (Human), UniProt P0DP23 2-149).
T1 construct: also called calmodulin-agarose
The test is described as follows: pull-down of purified protein on calmodulin-agarose; anti-EF-1α immunoblot. (In western blotting, separated proteins are transferred to a membrane and probed.)

B1: macrophage EF-1α (murine, from RAW 264.7 cells) (other)
chain: GKEKTHINIVVIGHVDSGKSTTTGHLIYKCGGIDKRTIEKFEKEAAEMGKGSFKYAWVLDKLKAERERGITIDISLWKFETSKYYVTIIDAPGHRDFIKNMITGTSQADCAVLIVAAGVGEFEAGISKNGQTREHALLAYTLGVKQLIVGVNKMDSTEPPYSQKRYEEIVKEVSTYIKKIGYNPDTVAFVPISGWNGDNMLEPSANMPWFKGWKVTRKDGSASGTTLLEALDCILPPTRPTDKPLRLPLQDVYKIGGIGTVPVGRVETGVLKPGMVVTFAPVNVTTEVKSVEMHHEALSEALPGDNVGFNVKNVSVKDVRRGNVAGDSKNDPPMEAAGFTAQVIILNHPGQISAGYAPVLDCHTAHIACKFAELKEKIDRRSGKKLEDGPKFLKSGDAAIVDMVPGKPMCVESFSDYPPLGRFAVRDMRQTVAVGVIKAVDKKAAGAGKVTKSAQKAQKAK
notes: also called host EF-1α; host-EF-1α
As for B1, the binding result is “binds”.

Source of the values: US20050095247A1 (UNIVERSITY OF BRITISH COLUMBIA, published 2005).
